# Measurements reported in PMC3961693.
# Biological target: IL-6 (human) (UniProt P05231)
# Details: 32 nt; six 2'-O-methyl; eight Bn-dU; one Pe-dU; one Nap-dU (position 12); Bn-dU at 7, 8, 14, 15, 22, 23, 27, 30 named in text; binding assay method and buffer not given in the …
# IL-6 (human), sequence (P05231 30-212): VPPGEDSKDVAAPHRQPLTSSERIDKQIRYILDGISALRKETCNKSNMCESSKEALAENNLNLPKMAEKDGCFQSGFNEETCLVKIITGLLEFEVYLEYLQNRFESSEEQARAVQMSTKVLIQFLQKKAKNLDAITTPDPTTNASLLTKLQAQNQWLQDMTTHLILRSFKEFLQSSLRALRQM
sequence,measurement,value
GGCAGGUUUGGUAUUAACACGUUAAGUCGUGG [SL1025],Kd,0.2 nM
